B1: Azoarcus group I ribozyme (parent)
chain: GUGCCUUGCGCCGGGAAACCACGCAAGGGAUGGUGUCAAAUUCGGCGAAACCUAAGCGCCCGCCCGGGCGUAUGGCAACGCCGAGCCAAGCUUCGGCGCCUGCGCCGAUGAAGGUGUAGAGACUAGACGGCACCCACCUAAGGCAAACGCUAUGGUGAAGGCAUAGUCCAGGGAGUGGCGAAAGUCACACAAACCGG

This data set covers variants of B1. In words: reverse-splicing fitness (ratio to wild type); higher = more active; in vitro selection; Mg2+ level not given. In outline: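 An in vitro group I ribozyme library with randomized positions was T7-transcribed and gel-purified. In triplicate, 10 pmol RNA in EPPS pH 7.5 was reacted with 50 pmoles of a 30-nt RNA substrate for 1 h at 37 °C across several added MgCl2 levels (1–48 mM), then stopped with EDTA. Products were reverse transcribed from a substrate-complementary primer, PCR-amplified and sequenced (HiSeq 4000). Fitness is a variant's read proportion after selection over that before, normalised to wild type.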
As for GUGCCUUGCGCCGGGAAACCACGCAAGGGAUGGUGUCAAAUUCGGCGAAACCUAAGCGCCCGCCCGGGCGUAUGGCAACGCGGAGCCAAGCUUCGGCGCCUGCGCCGAUGAAGGUGUAGAGACUAGACGGCACCCACCUAAGGCAAACGAUAUGGUGAAGGCAUAGUCAAGGGAGGGGCGAAAGUCACACAAACCGG, the reverse-splicing fitness stood at 0.00584.
In the case of GUGCCUUGCGCCGGGAAACCACGCAAGGGAUGGUGUCAAAUUCGGCGAAACCUAAGCGCCCGCCCGGGCGUAUGGCAACGCGGAGCCAAGCUUCGGCGCCUGCGCCGAUGAAGGUGUAGAGACUAGACGGCACCCACCUAAGGCAAACGAUAUGGUGAAGGCAUAGUCAAGGGAGCGGCGAAAGUCACACAAACCGG, the reverse-splicing fitness was 0.0158.
In the case of GUGCCUUGCGCCGGGAAACCACGCAAGGGAUGGUGUCAAAUUCGGCGAAACCUAAGCGCCCGCCCGGGCGUAUGGCAACGCGGAGCCAAGCUUCGGCGCCUGCGCCGAUGAAGGUGUAGAGACUAGACGGCACCCACCUAAGGCAAACGAUAUGGUGAAGGCAUAGUCAAGGGAGAGGCGAAAGUCACACAAACCGG it was 0.0213; in that of GUGCCUUGCGCCGGGAAACCACGCAAGGGAUGGUGUCAAAUUCGGCGAAACCUAAGCGCCCGCCCGGGCGUAUGGCAACGCGGAGCCAAGCUUCGGCGCCUGCGCCGAUGAAGGUGUAGAGACUAGACGGCACCCACCUAAGGCAAACGAUAUGGUGAAGGCAUAGUCUAGGGAGGGGCGAAAGUCACACAAACCGG, 0.0071; in that of GUGCCUUGCGCCGGGAAACCACGCAAGGGAUGGUGUCAAAUUCGGCGAAACCUAAGCGCCCGCCCGGGCGUAUGGCAACGCGGAGCCAAGCUUCGGCGCCUGCGCCGAUGAAGGUGUAGAGACUAGACGGCACCCACCUAAGGCAAACGAUAUGGUGAAGGCAUAGUCUAGGGAGCGGCGAAAGUCACACAAACCGG, 0.0141.
In the case of GUGCCUUGCGCCGGGAAACCACGCAAGGGAUGGUGUCAAAUUCGGCGAAACCUAAGCGCCCGCCCGGGCGUAUGGCAACGCGGAGCCAAGCUUCGGCGCCUGCGCCGAUGAAGGUGUAGAGACUAGACGGCACCCACCUAAGGCAAACGAUAUGGUGAAGGCAUAGUCUAGGGAGAGGCGAAAGUCACACAAACCGG it was 0.0154.
For GUGCCUUGCGCCGGGAAACCACGCAAGGGAUGGUGUCAAAUUCGGCGAAACCUAAGCGCCCGCCCGGGCGUAUGGCAACGCGGAGCCAAGCUUCGGCGCCUGCGCCGAUGAAGGUGUAGAGACUAGACGGCACCCACCUAAGGCUAACGCUAUGGUGAAGGCAUAGUCGAGGGAGAGGCGAAAGUCACACAAACCGG the value was 0.00948; for GUGCCUUGCGCCGGGAAACCACGCAAGGGAUGGUGUCAAAUUCGGCGAAACCUAAGCGCCCGCCCGGGCGUAUGGCAACGCGGAGCCAAGCUUCGGCGCCUGCGCCGAUGAAGGUGUAGAGACUAGACGGCACCCACCUAAGGCUAACGCUAUGGUGAAGGCAUAGUCGAGGGAGCGGCGAAAGUCACACAAACCGG, 0.0115; for GUGCCUUGCGCCGGGAAACCACGCAAGGGAUGGUGUCAAAUUCGGCGAAACCUAAGCGCCCGCCCGGGCGUAUGGCAACGCGGAGCCAAGCUUCGGCGCCUGCGCCGAUGAAGGUGUAGAGACUAGACGGCACCCACCUAAGGCUAACGCUAUGGUGAAGGCAUAGUCGAGGGAGGGGCGAAAGUCACACAAACCGG, 0.00439.
Regarding GUGCCUUGCGCCGGGAAACCACGCAAGGGAUGGUGUCAAAUUCGGCGAAACCUAAGCGCCCGCCCGGGCGUAUGGCAACGCGGAGCCAAGCUUCGGCGCCUGCGCCGAUGAAGGUGUAGAGACUAGACGGCACCCACCUAAGGCAAACGAUAUGGUGAAGGCAUAGUCAAGGGAGUGGCGAAAGUCACACAAACCGG, the reverse-splicing fitness was found to be 0.00956.
In the case of GUGCCUUGCGCCGGGAAACCACGCAAGGGAUGGUGUCAAAUUCGGCGAAACCUAAGCGCCCGCCCGGGCGUAUGGCAACGCGGAGCCAAGCUUCGGCGCCUGCGCCGAUGAAGGUGUAGAGACUAGACGGCACCCACCUAAGGCAAACGAUAUGGUGAAGGCAUAGUCGAGGGAGUGGCGAAAGUCACACAAACCGG it was 0.00937; in that of GUGCCUUGCGCCGGGAAACCACGCAAGGGAUGGUGUCAAAUUCGGCGAAACCUAAGCGCCCGCCCGGGCGUAUGGCAACGCGGAGCCAAGCUUCGGCGCCUGCGCCGAUGAAGGUGUAGAGACUAGACGGCACCCACCUAAGGCAAACGAUAUGGUGAAGGCAUAGUCUAGGGAGUGGCGAAAGUCACACAAACCGG, 0.0101.
GUGCCUUGCGCCGGGAAACCACGCAAGGGAUGGUGUCAAAUUCGGCGAAACCUAAGCGCCCGCCCGGGCGUAUGGCAACGCGGAGCCAAGCUUCGGCGCCUGCGCCGAUGAAGGUGUAGAGACUAGACGGCACCCACCUAAGGCUAACGCUAUGGUGAAGGCAUAGUCAAGGGAGCGGCGAAAGUCACACAAACCGG: the reverse-splicing fitness amounted to 0.00844.
On to GUGCCUUGCGCCGGGAAACCACGCAAGGGAUGGUGUCAAAUUCGGCGAAACCUAAGCGCCCGCCCGGGCGUAUGGCAACGCGGAGCCAAGCUUCGGCGCCUGCGCCGAUGAAGGUGUAGAGACUAGACGGCACCCACCUAAGGCUAACGCUAUGGUGAAGGCAUAGUCAAGGGAGGGGCGAAAGUCACACAAACCGG, for which the reverse-splicing fitness came to 0.00461.
In the case of GUGCCUUGCGCCGGGAAACCACGCAAGGGAUGGUGUCAAAUUCGGCGAAACCUAAGCGCCCGCCCGGGCGUAUGGCAACGCGGAGCCAAGCUUCGGCGCCUGCGCCGAUGAAGGUGUAGAGACUAGACGGCACCCACCUAAGGCUAACGCUAUGGUGAAGGCAUAGUCAAGGGAGAGGCGAAAGUCACACAAACCGG it was 0.00756.
As to GUGCCUUGCGCCGGGAAACCACGCAAGGGAUGGUGUCAAAUUCGGCGAAACCUAAGCGCCCGCCCGGGCGUAUGGCAACGCGGAGCCAAGCUUCGGCGCCUGCGCCGAUGAAGGUGUAGAGACUAGACGGCACCCACCUAAGGCUAACGCUAUGGUGAAGGCAUAGUCUAGGGAGCGGCGAAAGUCACACAAACCGG, the reverse-splicing fitness is 0.0136.
In the case of GUGCCUUGCGCCGGGAAACCACGCAAGGGAUGGUGUCAAAUUCGGCGAAACCUAAGCGCCCGCCCGGGCGUAUGGCAACGCGGAGCCAAGCUUCGGCGCCUGCGCCGAUGAAGGUGUAGAGACUAGACGGCACCCACCUAAGGCUAACGCUAUGGUGAAGGCAUAGUCUAGGGAGGGGCGAAAGUCACACAAACCGG it was 0.00368; in that of GUGCCUUGCGCCGGGAAACCACGCAAGGGAUGGUGUCAAAUUCGGCGAAACCUAAGCGCCCGCCCGGGCGUAUGGCAACGCGGAGCCAAGCUUCGGCGCCUGCGCCGAUGAAGGUGUAGAGACUAGACGGCACCCACCUAAGGCUAACGCUAUGGUGAAGGCAUAGUCUAGGGAGAGGCGAAAGUCACACAAACCGG, 0.0116.
For GUGCCUUGCGCCGGGAAACCACGCAAGGGAUGGUGUCAAAUUCGGCGAAACCUAAGCGCCCGCCCGGGCGUAUGGCAACGCGGAGCCAAGCUUCGGCGCCUGCGCCGAUGAAGGUGUAGAGACUAGACGGCACCCACCUAAGGCUAACGCUAUGGUGAAGGCAUAGUCCAGGGAGGGGCGAAAGUCACACAAACCGG the value was 0.175; for GUGCCUUGCGCCGGGAAACCACGCAAGGGAUGGUGUCAAAUUCGGCGAAACCUAAGCGCCCGCCCGGGCGUAUGGCAACGCGGAGCCAAGCUUCGGCGCCUGCGCCGAUGAAGGUGUAGAGACUAGACGGCACCCACCUAAGGCUAACGCUAUGGUGAAGGCAUAGUCCAGGGAGCGGCGAAAGUCACACAAACCGG, 0.405; for GUGCCUUGCGCCGGGAAACCACGCAAGGGAUGGUGUCAAAUUCGGCGAAACCUAAGCGCCCGCCCGGGCGUAUGGCAACGCGGAGCCAAGCUUCGGCGCCUGCGCCGAUGAAGGUGUAGAGACUAGACGGCACCCACCUAAGGCUAACGCUAUGGUGAAGGCAUAGUCCAGGGAGAGGCGAAAGUCACACAAACCGG, 0.395.
For GUGCCUUGCGCCGGGAAACCACGCAAGGGAUGGUGUCAAAUUCGGCGAAACCUAAGCGCCCGCCCGGGCGUAUGGCAACGCGGAGCCAAGCUUCGGCGCCUGCGCCGAUGAAGGUGUAGAGACUAGACGGCACCCACCUAAGGCAAACGAUAUGGUGAAGGCAUAGUCCAGGGAGUGGCGAAAGUCACACAAACCGG the value was 0.0416; for GUGCCUUGCGCCGGGAAACCACGCAAGGGAUGGUGUCAAAUUCGGCGAAACCUAAGCGCCCGCCCGGGCGUAUGGCAACGCGGAGCCAAGCUUCGGCGCCUGCGCCGAUGAAGGUGUAGAGACUAGACGGCACCCACCUAAGGCAAACGAUAUGGUGAAGGCAUAGUCCAGGGAGAGGCGAAAGUCACACAAACCGG, 0.0422.
On to GUGCCUUGCGCCGGGAAACCACGCAAGGGAUGGUGUCAAAUUCGGCGAAACCUAAGCGCCCGCCCGGGCGUAUGGCAACGCGGAGCCAAGCUUCGGCGCCUGCGCCGAUGAAGGUGUAGAGACUAGACGGCACCCACCUAAGGCAAACGAUAUGGUGAAGGCAUAGUCCAGGGAGGGGCGAAAGUCACACAAACCGG, for which the reverse-splicing fitness turned out to be 0.0188.
In the case of GUGCCUUGCGCCGGGAAACCACGCAAGGGAUGGUGUCAAAUUCGGCGAAACCUAAGCGCCCGCCCGGGCGUAUGGCAACGCGGAGCCAAGCUUCGGCGCCUGCGCCGAUGAAGGUGUAGAGACUAGACGGCACCCACCUAAGGCAAACGAUAUGGUGAAGGCAUAGUCCAGGGAGCGGCGAAAGUCACACAAACCGG, the reverse-splicing fitness is 0.0447.
For GUGCCUUGCGCCGGGAAACCACGCAAGGGAUGGUGUCAAAUUCGGCGAAACCUAAGCGCCCGCCCGGGCGUAUGGCAACGCGGAGCCAAGCUUCGGCGCCUGCGCCGAUGAAGGUGUAGAGACUAGACGGCACCCACCUAAGGCAAACGAUAUGGUGAAGGCAUAGUCGAGGGAGGGGCGAAAGUCACACAAACCGG the value was 0.00539; for GUGCCUUGCGCCGGGAAACCACGCAAGGGAUGGUGUCAAAUUCGGCGAAACCUAAGCGCCCGCCCGGGCGUAUGGCAACGCGGAGCCAAGCUUCGGCGCCUGCGCCGAUGAAGGUGUAGAGACUAGACGGCACCCACCUAAGGCAAACGAUAUGGUGAAGGCAUAGUCGAGGGAGCGGCGAAAGUCACACAAACCGG, 0.0214.
For the variant GUGCCUUGCGCCGGGAAACCACGCAAGGGAUGGUGUCAAAUUCGGCGAAACCUAAGCGCCCGCCCGGGCGUAUGGCAACGCGGAGCCAAGCUUCGGCGCCUGCGCCGAUGAAGGUGUAGAGACUAGACGGCACCCACCUAAGGCAAACGAUAUGGUGAAGGCAUAGUCGAGGGAGAGGCGAAAGUCACACAAACCGG, the reverse-splicing fitness came to 0.0179.
On to GUGCCUUGCGCCGGGAAACCACGCAAGGGAUGGUGUCAAAUUCGGCGAAACCUAAGCGCCCGCCCGGGCGUAUGGCAACGCGGAGCCAAGCUUCGGCGCCUGCGCCGAUGAAGGUGUAGAGACUAGACGGCACCCACCUAAGGCUAACGCUAUGGUGAAGGCAUAGUCGAGGGAGUGGCGAAAGUCACACAAACCGG, for which the reverse-splicing fitness was determined as 0.0104.
With GUGCCUUGCGCCGGGAAACCACGCAAGGGAUGGUGUCAAAUUCGGCGAAACCUAAGCGCCCGCCCGGGCGUAUGGCAACGCGGAGCCAAGCUUCGGCGCCUGCGCCGAUGAAGGUGUAGAGACUAGACGGCACCCACCUAAGGCUAACGCUAUGGUGAAGGCAUAGUCUAGGGAGUGGCGAAAGUCACACAAACCGG, the reverse-splicing fitness is 0.0147.

The values above are taken from the RNAGym collection of RNA variant scans (doi:10.1093/molbev/msab373).
